Data on 167 variants can be found in the RNAGym collection of RNA variant scans (doi:10.1073/pnas.2313332121).

First the molecules themselves.
B1: TPR t1 (parent)
chain: GACCAAUCUGCCCUCAGAGCUCGAGAACAUCUUCGGAUGCAGAGGAGGCAGGCUUCGGUGGCGCGAUAGCGCCAACGUCCUCAACCUCCAAUGCAUCCCACCACAUGAUGAUGCCUGAAGAGCCUUGGUUUUUUG

This series covers variants of B1. As to the kind of experiment: polymerase ribozyme fitness, log enrichment relative to wild type (log ratio); higher = more active; in vitro selection for triplet polymerase activity. The method in brief:
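Each subunit of a heterodimeric triplet polymerase ribozyme was represented by a PCR-built, transcribed mutant library that underwent triplicate single-round in vitro selection with frozen incubation at −7 °C. Extended constructs were recovered by gel excision, streptavidin-bead capture and RT-PCR, and Illumina sequencing of input and output libraries kept genotypes with ≥10 input reads and ≥1 read per output. Fitness is the logarithm of genotype enrichment relative to wild-type enrichment, from inverse-variance-weighted replicate averages, with a logarithm base of 2.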
On to C11U G42A C73U C104A U109A U125G, for which the “polymerase ribozyme fitness (log ratio)” value is -7.2.
For C11U G48U U59C A84G C101A the value was -2.88.
For C12A C28U the value was -1.82; for C12A C85U, -1.04.
As for C12A C53U A83C U106G G113U, the “polymerase ribozyme fitness (log ratio)” value was -6.76.
For C12A C13U G61U U106A the value was -0.644; for C12A C20A C64A C88U U116C, -6.74.
For C12A C49A G63U A121U U132C G135A the value was 1.42; for C11U G48A, -1.69; for C11U G48U, -0.841.
For C12A A18C the value was -1.6; for C12A C88G C89A U116C C124A G127A, -3.44.
In the case of C11U C115G, the “polymerase ribozyme fitness (log ratio)” value is -1.7.
In the case of C12A A24G A41U G71C C88U A90G C123G, the “polymerase ribozyme fitness (log ratio)” value is -4.92.
The result for C12A C20A G61C reads -4.95.
The result for C12A G25U A27C A37C U38A C70G C82U C115U reads -6.08; that for C12A C13G G35A, -5.31; that for C12A C97A, -4.79.
For C12A C40A C70G the value was -4.57; for C12A G71A, -1.07; for C11U G71U G93A C104U, -1.26.
C12A C49U: the “polymerase ribozyme fitness (log ratio)” value is -1.61.
The result for C12A G48C U116G reads -5.7.
The result for C12A C56U A95G C115A C124A reads 0.771; that for C12A G57U C82G G113A G122A, -2.01.
In the case of C11U G61A, the “polymerase ribozyme fitness (log ratio)” value worked out at 0.135.
In the case of C12A A84U, the “polymerase ribozyme fitness (log ratio)” value is -1.96.
The result for C11U C104U U126G reads -2.39; that for C12A G63A C89G C114A, -6.47; that for C12A A41U G48A G77U A83G, -2.82.
For C12A G113U the value was -2.09.
The result for C12A G113C reads -2.64; that for C12A A83U, -0.825.
For the variant C12A A74G C123A U131A, the “polymerase ribozyme fitness (log ratio)” value turned out to be 2.13.
For C11U C115A U125G the value was -2.51; for C12A C62A G77A, -3.27; for C11U G58A G71U A90G U116C, -2.7.
The result for C11U U14G G19U A29G C31U U32C C72G A111U U129A reads -7.29; that for C12A G19A C20A C53U C89A, -3.61.
Consider C11U G57A G63A C101G, for which the “polymerase ribozyme fitness (log ratio)” value was -3.69.
Turning to C12A C64U U81A, the “polymerase ribozyme fitness (log ratio)” value was -1.67.
The result for C11U G44A G52A A118C C123G reads -1.81.
For C11U G63U the value was -1.27; for C11U G63A, -1.15; for C12A G61U C70U U81G, -4.98.
On to C12A C49A G61A C82A, for which the “polymerase ribozyme fitness (log ratio)” value was -0.648.
For C12A C22G the value was -2.6; for C12A A29U C49U A74G C123A U131A, -1.45.
For C12A A29U the value was -1.98; for C11U G42C C53A, -2.22.
For C11U G42U G48C C88U G135C the value was -1.51; for C11U G113A, -1.33; for C12A C88G, -1.56.
On to C12A G44C C64U U125G, for which the “polymerase ribozyme fitness (log ratio)” value is -2.52.
Regarding C12A C99U C123U U129G, the “polymerase ribozyme fitness (log ratio)” value is -3.57.
The result for C11U G17A C82A reads -4.52.
For the variant C11U U21G G42A U96G, the “polymerase ribozyme fitness (log ratio)” value is -4.94.
Regarding C12A G39U A50U U133A, the “polymerase ribozyme fitness (log ratio)” value is -1.46.
The result for C11U U32A C34U G69U C88A reads -4.62; that for C11U G45A G51A C76G A91C C114G, -5.71.
For C11U C114U U132A the value was -3.3; for C12A A37C A46C C88U, -2.57.
C12A C53A G61U U109G G117C U125A U126C: the “polymerase ribozyme fitness (log ratio)” value is -7.8.
For C12A C49A C70A C97A G120U U130G the value was -5.85; for C12A G71U A91C, -1.77; for C12A G57A, -1.19.
Regarding C12A A26G G57A U78A C124G, the “polymerase ribozyme fitness (log ratio)” value was -1.04.
The result for C12A G47A C102G A111C A118C U129C reads -7.59; that for C11U G60A, -0.708.
With C12A G61A C64U, the “polymerase ribozyme fitness (log ratio)” value was -4.
For C11U G61A U112C the value was 1.14; for C12A G47A C70U C88U U106A, -2.59.
For C11U U92A the value was -2.13; for C12A C72U, -0.97; for C12A C72G, -0.22.
In the case of C12A G39U, the “polymerase ribozyme fitness (log ratio)” value was -1.1.
The result for C12A G69U G107C G117C reads -6.81; that for C12A G48C U54C A83C C88A, -2.86.
The result for C12A G35A C49A reads -5.9.
For C11U U55G the value was -2.15; for C12A C15A C72A G110U, -4.88.
As for C11U U81A, the “polymerase ribozyme fitness (log ratio)” value was -2.1.
For C11U G17U G48A C124G the value was -1.88.
On to C11U U112G G127A, for which the “polymerase ribozyme fitness (log ratio)” value is -1.34.
The result for C12A G57U G61U C89G reads -5.96.
The result for C12A C98U G110C U131A reads -6.2; that for C11U U21C G63A C82U, -1.23; that for C11U U32C C70U C98U C124G, -1.48.
For C12A C64U the value was -0.93.
Regarding C11U G47C C56U U78A A100U C115U U131C, the “polymerase ribozyme fitness (log ratio)” value is -4.41.
The result for C12A C53G G69A C115A U116A reads -7.23; that for C11U G39U C86G, -2.92; that for C12A C22A G52A A84U A91C G120C, -6.58.
The result for C11U U32A A46C G48A C72G U112G reads -5.51; that for C12A C97A U131A, -4.52; that for C12A G23A C82G, -7.42.
For C11U G39A the value was -1.08; for C11U G52U A83U G110C C123U, -5.57.
C11U U21C G120U: the “polymerase ribozyme fitness (log ratio)” value worked out at 0.267.
The result for C12A G19A G60U reads -2.57; that for C12A G48U G71A, -2.04.
As for C12A C34A G45A G71C, the “polymerase ribozyme fitness (log ratio)” value was -6.58.
For C11U U33A C85G C101U the value was -5.74.
For C12A G19C G58A C82G, the “polymerase ribozyme fitness (log ratio)” value is -3.7.
For C11U G42A C85G the value was -3.59; for C12A C123G, 1.19; for C12A A37U A68G C114G, -6.56.
For C11U G77U A111G U112C G122A the value was -0.084.
Turning to C11U G63U U78C C101A, the “polymerase ribozyme fitness (log ratio)” value is -4.53.
The result for C12A C56A C70U C102A C104U reads -2.58.
For C11U G45A the value was -0.828.
For C12A A41G G63A the value was -2.29.
As for C12A A41G G61U G117C G135C, the “polymerase ribozyme fitness (log ratio)” value is -4.3.
The result for C11U U30G G120C reads -5.71.
With C12A C40U C56A U96A G117A, the “polymerase ribozyme fitness (log ratio)” value is -5.83.
The result for C12A C115A reads -0.819; that for C12A C62G C72G, -6.48; that for C12A G60A G110U G122A U132A, -3.16.
The result for C11U U33G reads -5.16; that for C12A C20A G61A C88U U116C, -4.6.
For C11U G117C A119U the value was -3.48; for C12A G48U C53A C101U G113C G120A, -3.38.
As to C12A G61A G93A, the “polymerase ribozyme fitness (log ratio)” value was -0.608.
As for C12A C72U C98A, the “polymerase ribozyme fitness (log ratio)” value was -6.65.
For C12A A46C G60A C82G the value was -1.19.
The result for C12A C80U G120U U132A reads 1.64; that for C12A G51A A91G A119G G120A, -2.39.
For C12A G69A the value was -2.89.
Turning to C12A G69U, the “polymerase ribozyme fitness (log ratio)” value was -0.288.
The result for C12A A18C A29G C72A reads -2.28.
As to C11U U78C, the “polymerase ribozyme fitness (log ratio)” value is -0.264.
For C12A G47C C56A C70U A83U C85U G120C the value was -4.03.
As to C12A A46U C82U, the “polymerase ribozyme fitness (log ratio)” value is -1.99.
For C12A C13A U59G G127A the value was -3.41; for C11U G71A U133G, -1.59.
The result for C12A G61U C104U A108C A121U reads -3.79; that for C11U G45A U78A C86A U106A U125A, -6.24.
For C12A G35U C40U G45A C53G G63C G117C G127U the value was -6.85; for C12A G117U U131C, -4.17; for C11U G19U U54A G71A A121C G135U, -4.33.
For C12A A105G C124U, the “polymerase ribozyme fitness (log ratio)” value was -0.99.
For C12A G19C A91U U126G the value was -5.51.
For C11U C104G the value was -6.74; for C11U G128C, -2.9.
For C12A A24U U32A C99A U116C U130G the value was -7.85; for C11U G77U A91U, -1.63.
As to C12A C64U C115U G120A C123A, the “polymerase ribozyme fitness (log ratio)” value was -1.16.
As to C12A C49A C88A G110U, the “polymerase ribozyme fitness (log ratio)” value is -1.74.
C11U G42C G44U C62U: the “polymerase ribozyme fitness (log ratio)” value is -2.34.
The result for C12A C99G G110U reads -6.29.
The result for C12A G19A A46C C73U G117C reads -5.99.
Take C12A C62U: the “polymerase ribozyme fitness (log ratio)” value was -0.927.
For C11U U14A A84G the value was -4.24; for C11U G17U, -4.34; for C12A C89U, -1.16.
For C11U G17A G57C C89U G120C the value was -1.86; for C11U G61A C94G, -0.792; for C12A G47U G60A U78A, -2.01.
For C12A G58A the value was -0.259.
Turning to C12A A16U G44C C94U G117C U129G, the “polymerase ribozyme fitness (log ratio)” value is -5.45.
Take C11U U106G: the “polymerase ribozyme fitness (log ratio)” value was -1.1.
C12A A41U G77C A83G C85A U125A: the “polymerase ribozyme fitness (log ratio)” value was -4.14.
For C12A C20U A26C G48A C49A A121G U133A the value was -5.75; for C11U G17A U106A, -3.29; for C12A A46U G47C, -1.36.
For C12A G117C A121G the value was -3.52.
For C11U G60A U131G the value was -2.06.
